Reference: patent US20100278801A1 (published 2010)
Each block holds one binder with its values, some of them ahead of it.

What was measured:
120-G564S/320.1 [1] = assay: biotin-ligand binding
120-G564S/320.1 [2] = assay: Eu-ligand binding
[3] = target: HFD300.1 (HFD300-132K) Wild Type; assay: Eu-ligand saturation binding
HFD300.1 = assay: 125I-ligand binding

Kd (120-G564S/320.1 [1]): 0.211 nM
B1: HB-EGF-biotin (ligand)
chain: DLQEADLDLLRVTLSSKPQALATPNKEEHGKRKKKGKGLGKKRDPCLRKYKDFCIHGECKYVKELRAPSCICHPGYHGERCHGLSL

Kd (HFD300.1): 12.1 nM
B4: NRG1β (ligand)
chain: SHLVKCAEKEKTFCVNGGECFMVKDLSNPSRYLCKCPNEFTGDRCQNYVMASFYKHLGIEFMEAE

More lines, now with the values behind:

B2: EU-EGF (ligand)
chain: NSDSECPLSHDGYCLHDGVCMYIEALDKYACNCVVGYIGERCQYRDLKWWELR
Kd (120-G564S/320.1 [2]): 0.877 nM

B3: Eu-NRG1β1 (ligand)
chain: B4 chain
Kd [3]: 3.11 nM
